In patent US20180230200A1 (CITY OF HOPE, published 2018):

How the values were obtained:
gH of HCMV strain TB40/E = gH of HCMV strain TB40/E (human cytomegalovirus strain TB40/E); experiment: cell-based or functional assay
gH of HCMV strain Towne = molecular target: T1, gH of HCMV strain Towne (human cytomegalovirus strain Towne, UniProt P17176 30-742); experiment: immunoblot, lysates of HCMV-infected MRC-5
T1 sequence: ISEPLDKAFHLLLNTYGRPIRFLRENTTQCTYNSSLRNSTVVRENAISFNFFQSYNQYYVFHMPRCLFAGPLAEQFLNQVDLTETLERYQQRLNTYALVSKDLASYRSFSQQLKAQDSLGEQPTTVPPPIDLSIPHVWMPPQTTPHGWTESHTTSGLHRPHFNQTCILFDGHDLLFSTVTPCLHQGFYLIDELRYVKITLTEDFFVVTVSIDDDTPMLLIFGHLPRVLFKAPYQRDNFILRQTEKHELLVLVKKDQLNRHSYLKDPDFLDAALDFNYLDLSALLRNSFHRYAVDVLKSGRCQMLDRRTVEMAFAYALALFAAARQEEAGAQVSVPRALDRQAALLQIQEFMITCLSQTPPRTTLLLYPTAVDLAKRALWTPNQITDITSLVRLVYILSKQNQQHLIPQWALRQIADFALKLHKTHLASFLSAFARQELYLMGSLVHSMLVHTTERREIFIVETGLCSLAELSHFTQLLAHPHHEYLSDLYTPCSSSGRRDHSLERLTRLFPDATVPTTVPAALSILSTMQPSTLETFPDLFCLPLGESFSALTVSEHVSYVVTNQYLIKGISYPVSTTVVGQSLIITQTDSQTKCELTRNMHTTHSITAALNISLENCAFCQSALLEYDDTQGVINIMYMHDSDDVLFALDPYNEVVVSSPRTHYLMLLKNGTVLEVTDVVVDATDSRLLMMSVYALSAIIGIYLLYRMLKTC

[1] = molecular target: T2, gH/gL/UL128/UL130/UL131A pentamer complex expressed from MVA-PC in BHK-21 cells (human cytomegalovirus, UniProt P12824 24-743; P16832 31-278; P16837 28-171; P16772 1-214; F5HET4 19-129); experiment: FC, biotinylated NAb titrated on MVA-PC-infected BHK-21 (cell surface PC)
T2 construct: whole, on cells

[2] = molecular target: T2, gH/gL/UL128/UL130/UL131A pentamer …; experiment: FC competition, MVA-PC BHK-21; unlabelled row Ab; competitor: biotinylated 1B2
[3] = molecular target: T2, gH/gL/UL128/UL130/UL131A pentamer …; experiment: FC competition, MVA-PC BHK-21; unlabelled row Ab; competitor: biotinylated 12E2
[4] = molecular target: T2, gH/gL/UL128/UL130/UL131A pentamer …; experiment: FC competition, MVA-PC BHK-21; unlabelled row Ab; competitor: biotinylated 13B5
[5] = molecular target: T2, gH/gL/UL128/UL130/UL131A pentamer …; experiment: FC competition, MVA-PC BHK-21; unlabelled row Ab; competitor: biotinylated 2-80; note: test concentration or dose not given here
[6] = molecular target: T2, gH/gL/UL128/UL130/UL131A pentamer …; experiment: FC competition, MVA-PC BHK-21; unlabelled row Ab; competitor: biotinylated 21E9; note: test concentration or dose not given here
[7] = molecular target: T2, gH/gL/UL128/UL130/UL131A pentamer …; experiment: FC competition, MVA-PC BHK-21; unlabelled row Ab; competitor: biotinylated 21F6
[8] = molecular target: T2, gH/gL/UL128/UL130/UL131A pentamer …; experiment: FC competition, MVA-PC BHK-21; unlabelled row Ab; competitor: biotinylated AP86; note: test concentration or dose not given here
[9] = molecular target: T2, gH/gL/UL128/UL130/UL131A pentamer …; experiment: FC competition, MVA-PC BHK-21; unlabelled row Ab; competitor: biotinylated 18F10
[10] = molecular target: T2, gH/gL/UL128/UL130/UL131A pentamer …; experiment: FC competition, MVA-PC BHK-21; unlabelled row Ab; competitor: biotinylated 54E11
[11] = molecular target: T2, gH/gL/UL128/UL130/UL131A pentamer …; experiment: FC competition, MVA-PC BHK-21; unlabelled row Ab; competitor: biotinylated 62-11; note: test concentration or dose not given here

B1: 18F10 (antibody, V domains shown)
VH: QVTLKESGPGILQPSQTLSLTCSFSGFSLSTYGIGIGWIRQPSGKGLEWLAHIWWNDNKNYNTALKSRLTISKDPSNNQVFLKIASVDTADTATYFCARTGYFDVWGAGTTVTVSS
VL: DVVLTQTPLSLPVSLGDQVSISCSSSQSLVHSNGNTYIHWYLQKPGQSPKLLIYTVSNRFSGVPDRFSGSGSGTDFTLKISRVEAEDLGLYFCSQSTHVPYTFGGGTKLEIK
notes: also called NAb 18F10
With B1 the “IC50, inhibition of TB40/E cell-to-cell spread in ARPE-19” value (gH of HCMV strain TB40/E) was 95 µg/mL, the “IC50, neutralization of TB40/E infection of ARPE-19” value (gH of HCMV strain TB40/E) was 0.763 µg/mL and the “IC50, neutralization of TB40/E infection of CTB” value (gH of HCMV strain TB40/E) was 8.8 µg/mL. For the same binder, the “IC50, neutralization of TB40/E infection of HUVEC” value (gH of HCMV strain TB40/E) was 1.49 µg/mL, the “IC50, neutralization of TB40/E infection of MRC-5” value (gH of HCMV strain TB40/E) was > 25 µg/mL and the binding result (gH of HCMV strain Towne) was “no binding (tested: 10 µg/ml)”. The EC50 [1] was 6.5 nM, the “Binding Inhibition (%)” value [2] was 0% and the “Binding Inhibition (%)” value [3] was 0%. The “Binding Inhibition (%)” value [4] was 0%, the “Binding Inhibition (%)” value [5] was 0% and the “Binding Inhibition (%)” value [6] was 0%. For the same binder, the “Binding Inhibition (%)” value [7] was 0%, the “Binding Inhibition (%)” value [8] was 100% and the “Binding Inhibition (%)” value [9] was 100%. The “Binding Inhibition (%)” value [10] was 0% and the “Binding Inhibition (%)” value [11] was 0%.
